From a protein production outcome set (Wang et al. 2014)

Assay: label from the status in PepcDB records

Question: For “MIMIDLSLIWIVIIAVGVFIYIVLDGFDLGIGILFPFIKDQHERDVMMNTVAPVWDGNETWMVLGGAGLFAAFPMVYSAVLSALYLPIILMVIALIFRGVAFEFRFKANRTKHLWDAAFIGGSIISSFLQGVILGAYIQGIHIVDGRYAGGGLDWLTPFSLFTGVGVVVVYAALGCGWLIMKTDHRLQLNMYSLMPKLMYALLIIFVCVSIYTPLSQPQIAARWFTQPQLTYFSPVPILVVIFTFLTVRACSKRQESMPFLYTLALVFLAYTGFLISIFPYIIPPSVTIWDAAAPANSQLFALIGALILIPIIIMYTIMAYWVFRDKVRVGDEGYH”, which protein production is on record?
Answer: failed

Question: For “MEAVVLPWQIFGVRELPVERGVTMKGPRLFRAPGHVPTGLKCHPDQEHMIYPLGCTVLIQAINTKEQNFLQGHGNNVSCLAISRSGEYIASGQVTFMGFKADIILWDYKNRELLARLSLHKGKIEALAFSPNDLYLVSLGGPDDGSVVVWSIAKRDAICGSPAAGLNVGNATNVIFSRCRDEMFMTAGNGTIRVWELDLPNRKIWPTECQTGQLKRIVMSIGVDDDDSFFYLGTTTGDILKMNPRTKLLTDVGPAKDKFSLGVSAIRCLKMGGLLVGSGAGLLVFCKSPGYKPIKKIQLQGGITSITLRGEGHQFLVGTEESHIYRVSFTDFKETLIATCHFDAVKDIVFPFGTAELFATCAKKDIRVWHTSSNRELLRITVPNMTCHGIDFMRDGKSIISAWNDGKIRAFAPETGRLMYVINNAHRIGVTAIATTSDCKRVISGGGEGEVRVWQIGCQTQKLEEALKEHKSSVSCIRVKRNNEECVTASTDGTCIIWDLVRLRRNQMILANTLFQCVCYHPEEFQIITSGTDRKIAYWEVFDGTVIRELEGSLSGSINGMDITQEGVHFVTGGNDHLVKVWDYNEGEVTHVGVGHSGNITRIRISPGNQYIVSVSADGAILRWKYPYTS”, which protein production is on record?
Answer: failed

Question: For “MGHHHHHHSHSVGMDTFIHRIDSTEVIYQPRRKRAKLIGKYLMGDLLGEGSYGKVKEVLDSETLCRRAVKILKKKKLRRIPNGEANVKKEIQLLRRLRHKNVIQLVDVLYNEEKQKMYMVMEYCVCGMQEMLDSVPEKRFPVCQAHGYFCQLIDGLEYLHSQGIVHKDIKPG”, which protein production is on record?
Answer: failed

Question: Which protein production does the source give for “MIGQAILLGCIAFIAQSEYALGTSLLSRPIVTGLFVGIVLGDVKTGVIMGATLELAFIGSFSVGASIPPDVVTGGILGTAFAITAGAGTETALVLGLPIATLTLILKNIYLGLLIPIMSQKADQYAEEGAYKGVERMHLLAGFGLSFMLALIVTISFAVGSNTIKGLLDLIPEFIQHGLSVATGIIPALGFAMLARLLINKQVAPYFFLGFVLMAYFKLPVTGVAILGAITAVIVVNIMNYAKGKNETIQTTSGEVIDDDEDF” here?
Answer: failed

Question: For “MNKFLRVLFILVILAMTDAIIFQLFFPTYMGSHSGYGISVGWQREIGIWNVTVLVILITVNLKYDWFYLRAVLMALIIGGLGIGTNHFLSYLQYRHSVNAIGALENYLLVLGWIIGWWLENSSRKRV”, which protein production is on record?
Answer: failed

Question: For “MQAVLTAALPVFALILTGWLAARWRVLGPSATDALNRYVVYLSLPALLFRAMAQADLRQLADYWGFTAAVAGGIALTFGAAILACRRDGARLTDLSLEGLATSYGNAGYMGIPLCLALLGPASLAPAIITTLLTACVLFGVAIALIEFDQHRDRHWSATLLKVARALLRNPLLAAPLLGLACAAAGITLPAGLDNYAALLGASASPCALVTIGLFLAQSQPGGDRGTVGLMVDGKLLLHPAVTAVLAFAVFDMPPLWAWCAVLMAALPIGTGPFMLAQLYGRDARPSSRAILLSTVLSVPTITALVAWIGRQPLG”, which protein production is on record?
Answer: failed

Question: For “MSVKLRLPQSAYPIFDRIEEMAWARHYQQIVREEKETELADDLEKGLPQHLFESLCIDHLQRHGANKQAISHAFDDDVEFQERMAEHIRYMAETIAHHQVDIDLEDLEHHHHHH”, which protein production is on record?
Answer: not failed

Question: With “MTDTASKYAVKLKTNFEDPKWVNRHKFMFNFLDINGNGKITLDEIVSKASDDICAKLGATPAQTQRHQEAVEAFFKKIGLDYGKEVEFPAFVNGWKELAKHDLKLWSQNKKSLIRNWGEAVFDIFDKDGSGSISLDEWKTYGGISGICPSDEDAEKTFKHCDLDNSGKLDVDEMTRQHLGFWYTLDPNADGLYGNFVP” as the sequence, how does the protein production read?
Answer: not failed

Question: With “MEADRGRNNKVRCAVVDTNVLMYVYLNKADVVGQLREFGFSRFLITASVKRELEKLEMSLRGKEKVAARFALKLLEHFEVVETESEGDPSLIEAAEKYGCILITNDKELKRKAKQRGIPVGYLKEDKRVFVELLD” as the sequence, how does the protein production read?
Answer: not failed

Question: Which protein production does the source give for “MDALIMAGGKGTRMGGVEKPLIKLCGRCLIDYVVSPLLKSKVNNIFIATSPNTPKTKEYINSAYKDYKNIVVIDTSGKGYIEDLNECIGYFSEPFLVVSSDLINLKSKIINSIVDYFYCIKAKTPDVEALAVMIPKEKYPNPSIDFNGLVPAGINVVSPKHGYQKEEIMVIDELIFNINTKDDLKLAEMLLKKDGL” here?
Answer: failed

Question: With “MIKGNKMASFSQVSFSIPQRVIHWAMALLIFFNLLFPDAMAHAYRLMRRGETLTPDQISSANIHAYVGFAILLLAVLRLCLRFFQGVPPHPAEEPRASQIAAKAAHFTFYVLFFILPLSGIAAYYFGIATAGELHSGPFKAVMWVLIAGHVAAVLVHQFYWRTNVLKRMTHG” as the sequence, how does the protein production read?
Answer: failed

Question: Which protein production does the source give for “MSASIMTWPVLSVVTFLPVLGAALVYLARGEDEAARRNARWISLWTTLITFAVSLLLVWHFDPANPGFQFVEKAPWLGNTITYHMGLDGISLPLVILTTAIMPFCIIASWRSVTVRVREYMIAFLILETLMIGTFSALDLVLFYLFFEGGLIPMFLIIGIWGGPRRVYASFKFFLYTLLGSVLMLLAIMALYWNAGTTDIPTLMRTSVPSGLQTWAWLAFFASFAVKMPMWPVHTWLPDAHVEAPTAGSVVLAAILLKMGGYGFLRFSLPMFPDASAYFAPLIYTLSVIAIIYTSLVALMQEDIKKLIAYSSVAHMGFVTMGIFAGTTQGVAGAVFQMVSHGIVSGALFLCVGVVYDRMHTREIAAYGGLVNRMPLYALVFMVFTMANVGLPGTSGFVGEFLTLLGTFRVNIPTATLATTGVILSAGYALWLYRKVVFGAMTKPALASIKDLTWREGLMMAPLLVLTILFGFYPKPVLDMSAASVQQLVNNYAAAVTAVKAAALP” here?
Answer: failed

Question: For “DKIAIIGSRRMSVYTKNCVFSLASMLKNAHLCVVSGGALGVDITASMAAMPNTIGIFANGLDQIYPRTNEKIIKQIYENALALSEYEDDYLPKNYDFLLRNRLVIALSKAVVVAQADIKSGSMQSAKLALELNKPLYVLPQRLGESTATNLLLKENKAKLICDFKEFVSEFASID”, which protein production is on record?
Answer: failed

Question: For “MAKVNITRDLIRRQIKERGALSFERRYHVTDPFIRRLGLEAELQGHSGCVNCLEWNEKGDLLASGSDDQHTIVWDPLHHKKLLSMHTGHTANIFSVKFLPHAGDRILITGAADSKVHVHDLTVKETIHMFGDHTNRVKRIATAPMWPNTFWSAAEDGLIRQYDLRENSKHSEVLIDLTEYCGQLVEAKCLTVNPQDNNCLAVGASGPFVRLYDIRMIHNHRKSMKQSPSAGVHTFCDRQKPLPDGAAQYYVAGHLPVKLPDYNNRLRVLVATYVTFSPNGTELLVNMGGEQVYLFDLTYKQRPYTFLLPRKCHSSGEVQNGKMSTNGVSNGVSNGLHLHSNGFRLPESRGHVSPQVELPPYLERVKQQANEAFACQQWTQAIQLYSKAVQRAPHNAMLYGNRAAAYMKRKWDGDHYDALRDCLKAISLNPCHLKAHFRLARCLFELKYVAEALECLDDFKGKFPEQAHSSACDALGRDITAALFSKNDGEEKKGPGGGAPVRLRSTSRKDSISEDEMVLRERSYDYQFRYCGHCNTTTDIKEANFFGSNAQYIVSGSDDGSFFIWEKETTNLVRVLQGDESIVNCLQPHPSYCFLATSGIDPVVRLWNPRPESEDLTGRVVEDMEGASQANQRRMNADPLEVMLLNMGYRITGLSSGGAGASDDEDSSEGQVQCRPS”, which protein production is on record?
Answer: failed

Question: Which protein production does the source give for “MGAAKPIFVEHSIVIDRPAQQVYDYWRKLENLPQIMSHLESVTVLDDKRSRWVAKAPLGTHVEWEAEVVNDKPGERIGWHSLPGATVDNAGSVQFESLPDDKTRVHVALSYRPPAGPLGAAVAKLFGEEPSQQIAEDLQKFKATFEGLEHHHHHH” here?
Answer: failed
